Patent publication US10520496B2 (priority 2015, dated 2019)
Where “and” joins values, the source holds several entries; their conditions need not be identical. Equal values may be shown once. Entries after “also recorded” stand apart in the source; their conditions may differ. Read-outs that look alike come from different tables or passages of the source. *: point of attachment. 5FAM = O=C1OC2(c3ccc(O)cc3Oc3cc(O)ccc32)c2ccc(C(=O)*)cc21; DABCYL = quencher, CN(C)c1ccc(/N=N/c2ccc(C(=O)*)cc2)cc1

Key:
Collagenase I = Collagenase I (Hathewaya histolytica, UniProt Q9X721); format: biochemical, Clostridium histolyticum; settings: for Km / Vmax: collagenase I 0.45 μg/ml; for effect of zinc on measured RFU (enzymatic cleavage): zinc salt 16.7 μM, presence or absence of CaCl2 4.14 mM, vs control and NaSO4
Collagenase I, sequence (Q9X721 111-1118): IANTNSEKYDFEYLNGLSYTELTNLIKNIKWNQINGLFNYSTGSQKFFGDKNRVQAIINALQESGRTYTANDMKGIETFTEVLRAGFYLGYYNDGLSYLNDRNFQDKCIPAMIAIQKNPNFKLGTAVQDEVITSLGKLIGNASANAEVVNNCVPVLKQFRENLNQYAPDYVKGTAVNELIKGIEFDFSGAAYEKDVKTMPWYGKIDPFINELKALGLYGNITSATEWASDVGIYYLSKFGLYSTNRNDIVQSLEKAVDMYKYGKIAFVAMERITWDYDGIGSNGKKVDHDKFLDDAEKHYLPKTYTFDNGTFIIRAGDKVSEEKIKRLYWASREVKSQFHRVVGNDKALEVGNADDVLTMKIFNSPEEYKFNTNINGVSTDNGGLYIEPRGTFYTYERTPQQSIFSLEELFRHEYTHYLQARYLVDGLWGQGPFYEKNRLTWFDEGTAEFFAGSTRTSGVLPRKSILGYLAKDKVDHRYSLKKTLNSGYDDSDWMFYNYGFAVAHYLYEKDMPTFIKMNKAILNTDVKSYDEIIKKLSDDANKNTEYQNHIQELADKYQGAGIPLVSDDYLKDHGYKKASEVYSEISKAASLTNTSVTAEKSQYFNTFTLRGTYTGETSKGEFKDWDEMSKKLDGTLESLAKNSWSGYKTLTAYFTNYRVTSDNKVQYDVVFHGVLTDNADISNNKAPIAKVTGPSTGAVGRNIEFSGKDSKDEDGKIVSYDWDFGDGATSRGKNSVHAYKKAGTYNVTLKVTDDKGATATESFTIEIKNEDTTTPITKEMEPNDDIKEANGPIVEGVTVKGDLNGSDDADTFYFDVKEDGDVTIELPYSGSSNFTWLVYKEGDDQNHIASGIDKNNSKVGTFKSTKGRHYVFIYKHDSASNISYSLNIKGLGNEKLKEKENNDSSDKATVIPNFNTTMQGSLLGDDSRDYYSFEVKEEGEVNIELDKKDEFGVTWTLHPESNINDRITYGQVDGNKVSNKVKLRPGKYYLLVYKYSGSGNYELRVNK

Collagenase II = Collagenase II (Hathewaya histolytica, UniProt Q46085); format: biochemical, Clostridium histolyticum
Thermolysin = Thermolysin (Bacillus thermoproteolyticus, UniProt P00800); format: biochemical; settings: for effect of zinc on measured RFU (enzymatic cleavage): zinc salt 16.7 μM, presence or absence of CaCl2 4.14 mM, vs control and NaSO4
Thermolysin, sequence (P00800 233-548): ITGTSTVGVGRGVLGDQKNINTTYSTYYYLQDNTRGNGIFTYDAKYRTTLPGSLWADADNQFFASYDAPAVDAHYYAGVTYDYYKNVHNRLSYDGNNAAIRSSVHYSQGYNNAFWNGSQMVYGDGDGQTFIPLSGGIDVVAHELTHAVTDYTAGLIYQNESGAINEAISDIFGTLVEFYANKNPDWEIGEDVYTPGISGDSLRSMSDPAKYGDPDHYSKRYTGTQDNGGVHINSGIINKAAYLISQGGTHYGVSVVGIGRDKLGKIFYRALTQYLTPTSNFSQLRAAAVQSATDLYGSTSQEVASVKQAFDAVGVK

Neutral Protease = format: biochemical, Clostridium histolyticum; settings: for Km / Vmax: neutral protease 20 μg/ml, substrate 5-80 μM, Example 2; for effect of zinc on measured RFU (enzymatic cleavage): zinc salt 16.7 μM, presence or absence of CaCl2 4.14 mM, vs control and NaSO4
From the text: GraphPad Prism (GraphPad Software 6.0, La Jolla, Calif., USA) was used for analyzing the data and generating the graphs. Both non-linear Michaelis-Menten and linear Lineweaver-Burk plots were used for the enzyme kinetics study. Kinetic parameters Vmax and Km were obtained from the Michaelis-Menten model by plotting the reaction velocity at different concentration of peptide substrate. Non-linear Michaelis-Menten curves for the enzymatic reaction in the presence and absence of CaCl2 were compared using Prism. All samples were run in duplicate, and results are reported as average±standard error of the mean (SEM). One-way or two-way ANOVA analysis followed by Tukey's multiple comparisons test was used to conduct multiple variable comparisons when applicable. Differences in data were considered significant when P values were less than 0.05.

chymotrypsin = chymotrypsin (Bos taurus, UniProt P00766); format: biochemical
elastase = elastase (Sus scrofa, UniProt P00772); format: biochemical
elastase, sequence (P00772 27-266): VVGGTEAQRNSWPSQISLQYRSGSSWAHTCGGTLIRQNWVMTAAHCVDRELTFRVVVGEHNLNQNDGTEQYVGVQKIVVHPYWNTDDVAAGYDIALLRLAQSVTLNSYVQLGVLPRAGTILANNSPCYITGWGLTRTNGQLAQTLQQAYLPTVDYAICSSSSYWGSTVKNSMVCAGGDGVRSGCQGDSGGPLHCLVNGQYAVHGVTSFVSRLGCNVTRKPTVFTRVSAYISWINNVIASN

collagenase = test: Enzymes that can cleave the substrate (Table 2); format: biochemical; settings: general statement
dispase = dispase (Paenibacillus polymyxa, UniProt P29148); test: Enzymes that can cleave the substrate (Table 2); format: biochemical; settings: general statement
dispase, sequence (P29148 287-590): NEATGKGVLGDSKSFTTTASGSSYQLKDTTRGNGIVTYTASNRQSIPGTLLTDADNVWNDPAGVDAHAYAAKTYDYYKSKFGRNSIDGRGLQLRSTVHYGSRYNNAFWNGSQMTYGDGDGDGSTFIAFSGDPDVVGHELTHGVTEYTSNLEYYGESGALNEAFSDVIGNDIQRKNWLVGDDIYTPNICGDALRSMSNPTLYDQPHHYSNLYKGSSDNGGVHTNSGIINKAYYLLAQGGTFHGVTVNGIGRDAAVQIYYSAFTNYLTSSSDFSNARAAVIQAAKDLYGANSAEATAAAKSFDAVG

Collagenase I/II = format: biochemical; settings: general statement
Protocol: The cleavage sites produced by various proteases were analyzed using the known sequence of the novel protease substrate 5FAMcollagenPPT. As provided herein, the cleavage sites were determined based on the results of mass spectrometric analysis of the protease substrate 5FAMcollagenPPT peptide fragments obtained from an enzymatic reaction with various enzymes tested.
Cleavage of the novel fluorogenic protease substrate 5FAMcollagenPPT was further investigated using various proteases. After cleavage of the substrate by proteases, the resulting cleavage products of the protease substrate were specifically analyzed using matrix-assisted laser desorption/ionization (MALDI) mass spectrometry.
Next, the specific sequences of the protease substrate 5FAMcollagenPPT cleavage products were analyzed using MALDI. Briefly, each protease was incubated for 15 minutes with the protease substrate at 22° C. Buffer conditions and concentrations of the protease substrates and proteases were as described in Example 2. The uncleaved 5FAMcollagenPPT substrate has a molecular weight of 1669.8 Daltons. The molecular weights of the resulting products of the protease substrate after cleavage by various proteases are shown in Table 8 and FIG. 13.

[1] = tested on: proteases listed in Table 7 except thermolysin (Collagenase I Liq, Collagenase II Liq, Collagenase NB1, Collagenase I/II, Neutral Protease NB); format: biochemical; settings: within the first hour; almost all proteases tested except thermolysin; peptide 10 μM; protease 20 μg/mL; pH 7.5
trypsin = settings: for Enzymes that do not cleave 5FAMcollagenPPT: trypsin: general statement
Botulinum neurotoxin A = Botulinum neurotoxin A (Clostridium botulinum, UniProt P0DPI0)
Botulinum neurotoxin B = Botulinum neurotoxin B (Clostridium botulinum, UniProt P10844)
[2] = water
[3] = with 4.14 mM calcium, substrate 5-80 μM, Example 2
[4] = without calcium, substrate 5-80 μM, Example 2
[5] = Example 3 (FIG. 10), thermolysin 17 μg/ml
[6] = enzyme 0.3125-10 μg/mL, substrate 50 μM, Example 3
[7] = with 4.14 mM calcium, thermolysin 17 μg/ml, substrate 5-80 μM, Example 2
[8] = without calcium, thermolysin 17 μg/ml, substrate 5-80 μM, Example 2
[9] = general statement, listed as 5FAM collagenPPT

## 5-FAM-Ala-Gly-Gly-Pro-Leu-Gly-Pro-Pro-Gly-Pro-Gly-Gly-Lys-[DABCYL]-amide (5FAM-AGGPLGPPGPGGK(DABCYL)-NH2; SMILES CC(C)C[C@H](NC(=O)[C@@H]1CCCN1C(=O)CNC(=O)CNC(=O)[C@H](C)NC(=O)c1ccc2c(c1)C(=O)OC21c2ccc(O)cc2Oc2cc(O)ccc21)C(=O)NCC(=O)N1CCC[C@H]1C(=O)N1CCC[C@H]1C(=O)NCC(=O)N1CCC[C@H]1C(=O)NCC(=O)NCC(=O)N[C@@H](CCCCNC(=O)c1ccc(/N=N/c2ccc(N(C)C)cc2)cc1)C(N)=O) [5FAMcollagenPPT]
Collagenase I; Example 3 (FIG. 10)
  Km: 28.2 µM
  Vmax: 909 RFU/min/μg
Collagenase I; general statement
  Enzymes that can cleave 5FAMcollagenPPT: collagenase I (class I): shown to cleave; also recorded: cleaved
Collagenase I; pH 6.8, 7.0, 7.5, 8.0, substrate 20 μM
  effect of pH on enzymatic cleavage activity: influenced by pH except Collagenase I
Collagenase I; [3]
  Km: 32.9 µM
  Vmax: 1008.158 RFU/min/μg
Collagenase I; [4]
  Km: 38.1 µM
  Vmax: 1704.72 RFU/min/μg
Collagenase II
  Enzymes that can cleave 5FAMcollagenPPT: collagenase II (class II): shown to cleave; also recorded: cleaved
  Km: 29.7 µM and 24.1 µM and 24.5 µM
  Vmax: 3354.43 RFU/min/μg and 3243.942 RFU/min/μg and 5000 RFU/min/μg
  effect of pH on enzymatic cleavage activity: significantly inhibited
Thermolysin; [5]
  Km: 34.6 µM
  Vmax: 24.6 RFU/min/μg
Thermolysin; [6]
  specificity of substrate for thermolysin, dose response (FIG. 11): highly specific
Thermolysin; enzyme 2.5, 5, 10 μg/ml, substrate 50 μM, with and without 4.14 mM CaCl2
  cleavage of substrate by thermolysin (FIG. 9): dose-dependent cleavage; also recorded: cleaved
Thermolysin; general statement
  Enzymes that can cleave 5FAMcollagenPPT: thermolysin: cleaved by thermolysin; also recorded: shown to cleave; also recorded: cleavable by thermolysin
Thermolysin; pH 8.0 compared to all other pH conditions, substrate 20 μM
  effect of pH on enzymatic cleavage activity: significantly inhibited
Thermolysin; [7]
  Km: 24.8 µM
  Vmax: 25.47 RFU/min/μg
Thermolysin; [8]
  Km: 30.4 µM
  Vmax: 23.7 RFU/min/μg
Neutral Protease; between pH 7.0 and pH 8.0, substrate 20 μM
  effect of pH on enzymatic cleavage activity: significant difference
Neutral Protease; with 4.14 mM calcium
  Km: 45.1 µM
  Vmax: 29.28 RFU/min/μg
Neutral Protease; without calcium
  Km: 74.1 µM
  Vmax: 20.04 RFU/min/μg
chymotrypsin; [6]
  cleavage of substrate by chymotrypsin, dose response (FIG. 11): do not cleave
chymotrypsin; [9]
  Enzymes that do not cleave 5FAMcollagenPPT: chymotrypsin: chymotrypsin
elastase; [6]
  cleavage of substrate by elastase, dose response (FIG. 11): do not cleave
elastase; [9]
  Enzymes that do not cleave 5FAMcollagenPPT: elastase: elastase
collagenase
  Enzymes that can cleave 5FAMcollagenPPT: collagenase: collagenase-specific
dispase
  Enzymes that can cleave 5FAMcollagenPPT: dispase: cleaved; also recorded: dispase
Collagenase I/II
  Enzymes that can cleave 5FAMcollagenPPT: class I/II collagenase: cleaved
[1]
  cleavage of substrate over time (FIG. 12): efficient cleavage
trypsin; [6]
  cleavage of substrate by trypsin, dose response (FIG. 11): do not cleave
trypsin; enzyme 2.5, 5, 10 μg/ml, substrate 50 μM, with and without 4.14 mM CaCl2, compared to thermolysin
  cleavage of substrate by trypsin (FIG. 9): significantly diminished reactivity; also recorded: not cleaved
trypsin
  Enzymes that do not cleave 5FAMcollagenPPT: trypsin: not degraded; also recorded: resistant to trypsin; also recorded: resistant to cleavage
trypsin; listed as 5FAM collagenPPT
  Enzymes that do not cleave 5FAMcollagenPPT: trypsin: trypsin
Botulinum neurotoxin A
  Enzymes that can cleave 5FAMcollagenPPT: Botulinum neurotoxin A: Botulinum neurotoxin A and B
Botulinum neurotoxin B
  Enzymes that can cleave 5FAMcollagenPPT: Botulinum neurotoxin B: Botulinum neurotoxin A and B
[2]
  solubility: water soluble

## [Ca+2].[Cl-].[Cl-] [CaCl2, reference compound]
Collagenase I; CaCl2 4.14 mM, Collagenase I 0.45 μg/ml, substrate 5FAMcollagenPPT 5-80 μM
  effect of CaCl2 on the cleavage reaction (Michaelis-Menten curves): significantly enhanced
Collagenase II
  effect of CaCl2 on the cleavage reaction (Michaelis-Menten curves): did not change significantly
Thermolysin; CaCl2 4.14 mM, Thermolysin 17 μg/ml, substrate 5FAMcollagenPPT 5-80 μM
  effect of CaCl2 on the cleavage reaction (Michaelis-Menten curves): did not change significantly
Neutral Protease; CaCl2 4.14 mM, Neutral Protease 20 μg/ml, substrate 5FAMcollagenPPT 5-80 μM
  effect of CaCl2 on the cleavage reaction (Michaelis-Menten curves): significantly enhanced

## O=C(O)CN(CCOCCOCCN(CC(=O)O)CC(=O)O)CC(=O)O [EGTA, ethylene glycol-bis(β-aminoethyl ether)-N,N,N′,N′-tetraacetic acid, reference compound]
Collagenase II
  effect of EGTA on RFU levels vs controls: significant differences
Thermolysin; EGTA 25, 50, 100 mM, thermolysin 17 μg/ml, substrate 20 μM
  effect of EGTA on RFU levels vs controls: significant differences

## [Cl-].[Cl-].[Zn+2] [ZnCl2, reference compound]
Collagenase I; substrate 20 μM
  effect of zinc on measured RFU (enzymatic cleavage): significantly decreased
Collagenase II
  effect of zinc on measured RFU (enzymatic cleavage): significantly decreased
Thermolysin; substrate 20 μM
  effect of zinc on measured RFU (enzymatic cleavage): significantly decreased
Neutral Protease; substrate 20 μM
  effect of zinc on measured RFU (enzymatic cleavage): significantly decreased

## O=S(=O)([O-])[O-].[Zn+2] [ZnSO4, reference compound]
Collagenase I; substrate 20 μM
  effect of zinc on measured RFU (enzymatic cleavage): significantly decreased
Collagenase II
  effect of zinc on measured RFU (enzymatic cleavage): significantly decreased
Thermolysin; substrate 20 μM
  effect of zinc on measured RFU (enzymatic cleavage): significantly decreased
Neutral Protease; substrate 20 μM
  effect of zinc on measured RFU (enzymatic cleavage): significantly decreased
